Columns and labels:
[1] = target: T1, human CD36 (on HEK 293 or SCC25 cells) (human, UniProt P16671 2-472); assay: FACS, HEK 293 cells transiently overexpressing human CD36
T1 construct: Overexpressed transiently or stably on HEK 293 cells, or stably on SCC25 cells; also called huCD36
Protocol: After incubation with the cells, an anti-human fluorescently labelled antibody was added to the cell media, allowed to incubate further, and the unbound antibody was washed off of the cells. Subsequently, the cells were subjected to FACS analysis to determine antibody binding to the cells. The results were fitted to a sigmoidal titration curve. Using a nonlinear regression model, the EC₅₀ values for each antibody were calculated from the GeoMFI and MFI values using the log(agonist) versus response (four parameters) fitting on the data transformed according to X=Log[X] in GraphPad PRISM.
After transiently transfecting the HEK 293 cells with a CD36 expression construct, cells were treated with three-fold serial dilution of each candidate antibody (10 dilutions starting at 500 nM). […] Antibody binding to cells was measured by FACS as above.

[2] = target: T1, human CD36 (on HEK 293 or SCC25 cells); assay: cell-based or functional assay
[3] = target: T2, purified biotin-tagged human CD36 (human, UniProt P16671 30-439, limits assumed, biotin tag, site not stated); assay: AlphaScreen competition; competitor 1G04 on acceptor beads;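 also: streptavidin donor beads excited at 680 nm release singlet oxygen, and the light signal needs a nearby acceptor bead, with 30 min donor-bead incubation at 25 °C in the dark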
T2 sequence (P16671 30-439 limits assumed): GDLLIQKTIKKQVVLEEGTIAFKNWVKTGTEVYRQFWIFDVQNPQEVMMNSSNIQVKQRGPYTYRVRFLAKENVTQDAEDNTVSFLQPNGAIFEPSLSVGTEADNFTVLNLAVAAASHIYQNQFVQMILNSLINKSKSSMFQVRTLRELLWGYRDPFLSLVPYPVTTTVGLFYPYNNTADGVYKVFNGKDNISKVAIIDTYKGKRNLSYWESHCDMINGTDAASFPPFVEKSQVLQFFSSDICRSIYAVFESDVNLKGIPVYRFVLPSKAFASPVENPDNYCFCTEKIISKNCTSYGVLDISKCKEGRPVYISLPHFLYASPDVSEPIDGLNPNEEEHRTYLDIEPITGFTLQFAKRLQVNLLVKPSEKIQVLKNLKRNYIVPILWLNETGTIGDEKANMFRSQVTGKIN

[4] = target: T3, mouse CD36 (on HEK 293 cells) (mouse, UniProt Q08857 1-472); assay: FACS, HEK 293 cells transiently overexpressing CD36;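 also: antibody binding to transfected cells detected by flow cytometry with a fluorescent anti-human secondary antibody, EC50 from a four-parameter sigmoidal fit of mean fluorescence intensity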
T3 construct: also called Murine CD36
T3 sequence (Q08857 whole entry): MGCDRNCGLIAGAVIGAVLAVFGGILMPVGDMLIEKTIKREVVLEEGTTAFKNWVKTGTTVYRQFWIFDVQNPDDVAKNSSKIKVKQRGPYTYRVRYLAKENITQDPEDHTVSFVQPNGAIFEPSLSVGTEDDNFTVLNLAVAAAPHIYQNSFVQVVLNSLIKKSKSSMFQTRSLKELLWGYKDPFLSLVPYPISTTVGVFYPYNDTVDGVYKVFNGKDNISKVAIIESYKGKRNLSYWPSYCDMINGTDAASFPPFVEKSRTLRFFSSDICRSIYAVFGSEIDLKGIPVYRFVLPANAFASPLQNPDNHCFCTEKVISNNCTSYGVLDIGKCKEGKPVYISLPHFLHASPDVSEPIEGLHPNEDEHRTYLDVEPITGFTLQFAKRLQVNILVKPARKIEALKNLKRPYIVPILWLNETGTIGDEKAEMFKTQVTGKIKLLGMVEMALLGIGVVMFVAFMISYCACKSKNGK

[5] = target: T4, nonhuman primate CD36 (on HEK 293 cells) (cynomolgus monkey / rhesus macaque, UniProt P16671 2-472 (human entry)); assay: as above
T4 construct: also called non-human primate CD36 (cynomolgus)
T4 sequence (P16671 other isoform, or with tags, fused parts or gaps limits assumed): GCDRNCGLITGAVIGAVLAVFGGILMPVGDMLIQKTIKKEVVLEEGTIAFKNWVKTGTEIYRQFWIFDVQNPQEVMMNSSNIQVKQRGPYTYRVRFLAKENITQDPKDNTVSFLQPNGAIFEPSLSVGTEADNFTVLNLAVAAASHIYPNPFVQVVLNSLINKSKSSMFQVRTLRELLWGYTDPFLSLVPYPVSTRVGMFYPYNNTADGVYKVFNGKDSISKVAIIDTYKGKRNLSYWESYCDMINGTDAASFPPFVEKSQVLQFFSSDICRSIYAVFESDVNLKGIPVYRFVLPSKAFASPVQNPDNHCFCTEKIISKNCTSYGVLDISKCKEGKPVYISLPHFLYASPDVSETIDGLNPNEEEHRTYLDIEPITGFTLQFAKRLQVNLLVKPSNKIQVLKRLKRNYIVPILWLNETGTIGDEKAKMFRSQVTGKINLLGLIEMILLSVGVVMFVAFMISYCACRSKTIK

[6] = target: T1, human CD36 (on HEK 293 or SCC25 cells); assay: as above
[7] = target: T1, human CD36 (on HEK 293 or SCC25 cells); assay: cell-based or functional assay; remark: listed apart in the source
[8] = target: T2, purified biotin-tagged human CD36; assay: AlphaScreen competition; competitor 11G04 on acceptor beads
Protocol: This was done using the AlphaScreen® bead-based microplate assay. […] AlphaLISA® Streptavidin Donor Beads were then added and the mix incubated for 30 min at 25° C. in the dark. The donor bead contains a photosensitizer, which upon excitation by light at 680 nm, converts oxygen (O₂) into an excited form, singlet oxygen. Singlet oxygen molecules have a reduced lifetime (4 microseconds half-life) and can diffuse approximately 200 nm in solution before falling back to ground state. In the absence of acceptor beads, the singlet oxygen molecules fall back to ground state without producing any light signal.

human CD36 (His-tagged) = target: T5, human CD36 (His-tagged) (human, UniProt P16671 30-439); assay: SPR (Biacore T200), His-captured CD36, bivalent analyte model
T5 construct: not shown: His tag
T5 sequence (P16671 30-439 limits assumed): as the sequence (P16671 30-439 limits assumed) above

[9] = target: T1, human CD36 (on HEK 293 or SCC25 cells); assay: cell-based or functional assay; remark: listed apart in the source
[10] = target: T1, human CD36 (on HEK 293 or SCC25 cells); assay: FACS, SCC25 cells stably overexpressing human CD36
For Percent Fatty Acid Uptake Inhibition in this document: test concentration or dose not given here.

T1 sequence (P16671 2-472 limits assumed): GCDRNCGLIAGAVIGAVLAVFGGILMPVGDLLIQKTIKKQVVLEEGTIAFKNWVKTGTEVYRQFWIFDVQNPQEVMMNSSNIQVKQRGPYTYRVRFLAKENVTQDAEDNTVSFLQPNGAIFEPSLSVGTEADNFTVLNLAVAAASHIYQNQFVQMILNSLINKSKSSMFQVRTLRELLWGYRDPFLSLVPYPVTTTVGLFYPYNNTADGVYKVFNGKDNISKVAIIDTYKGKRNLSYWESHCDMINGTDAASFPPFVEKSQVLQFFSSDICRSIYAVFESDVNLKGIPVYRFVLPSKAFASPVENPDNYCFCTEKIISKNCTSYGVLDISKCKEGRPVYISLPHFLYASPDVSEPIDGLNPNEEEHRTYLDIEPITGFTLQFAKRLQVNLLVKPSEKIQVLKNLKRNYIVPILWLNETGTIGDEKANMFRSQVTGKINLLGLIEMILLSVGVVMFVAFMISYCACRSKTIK

B1: 78G06 (antibody, human IgG1, kappa)
heavy: QVQLVQSGAEVKKPGSSVKVSCKASGYRFSDYEMQWVRQAPGQGLEWMGGIDPETGGIAYAQKFQGRVTLTADKSTSTAYMELSSLRSEDTAVYYCTRKLDFDYWGQGTLVTVSSASTKGPSVFPLAPSSKSTSGGTAALGCLVKDYFPEPVTVSWNSGALTSGVHTFPAVLQSSGLYSLSSVVTVPSSSLGTQTYICNVNHKPSNTKVDKKVEPKSCDKTHTCPPCPAPESTRGPSVFLFPPKPKDTLYITREPEVTCVVVDVSHEDPEVKFNWYVDGVEVHNAKTKPREEQYNSTYRVVSVLTVLHQDWLNGKEYKCKVSNKALPAPIEKTISKAKGQPREPQVYTLPPSRDELTKNQVSLTCLVKGFYPSDIAVEWESNGQPENNYKTTPPVLDSDGSFFLYSKLTVDKSRWQQGNVFSCSVMHEALHNHYTQKSLSLSPGK
light: ETTVTQSPAFMSATTGDKVTISCITSTDIDDDMNWYQQKPGEPPKLLISEGSTLRPGVPSRFSSSGYGTDFTFTINNIESEDAAYYYCLQSDNLPLTFGQGTKLEIKRTVAAPSVFIFPPSDEQLKSGTASVVCLLNNFYPREAKVQWKVDNALQSGNSQESVTEQDSKDSTYSLSSTLTLSKADYEKHKVYACEVTHQGLSSPVTKSFNRGEC
notes: Humanized 11G04, human IgG1 STR
EC50 [1]: 1.15 nM

B2: 80G06 (antibody, human IgG1, kappa)
heavy: QVQLVQSGAEVKKPGSSVKVSCKASGYRFSDYEMQWVRQAPGQGLEWMGGIDPETGGIAYAQKFQGRVTLTADKSTSTAYMELSSLRSEDTAVYYCTRKLDFDYWGQGTLVTVSSASTKGPSVFPLAPSSKSTSGGTAALGCLVKDYFPEPVTVSWNSGALTSGVHTFPAVLQSSGLYSLSSVVTVPSSSLGTQTYICNVNHKPSNTKVDKKVEPKSCDKTHTCPPCPAPESTRGPSVFLFPPKPKDTLYITREPEVTCVVVDVSHEDPEVKFNWYVDGVEVHNAKTKPREEQYNSTYRVVSVLTVLHQDWLNGKEYKCKVSNKALPAPIEKTISKAKGQPREPQVYTLPPSRDELTKNQVSLTCLVKGFYPSDIAVEWESNGQPENNYKTTPPVLDSDGSFFLYSKLTVDKSRWQQGNVFSCSVMHEALHNHYTQKSLSLSPGK
light: ETTVTQSPAFMSATPGDKVTISCITSTDIDDDMNWYQQKPGEPPKLLISEGSTLRPGVPSRFSSSGYGTDFTFTINNIESEDAAYYYCLQSDNLPLTFGQGTKLEIKRTVAAPSVFIFPPSDEQLKSGTASVVCLLNNFYPREAKVQWKVDNALQSGNSQESVTEQDSKDSTYSLSSTLTLSKADYEKHKVYACEVTHQGLSSPVTKSFNRGEC
notes: as for B1
EC50 [1]: 0.65 nM

B3: 79G06 (antibody, human IgG1, kappa)
heavy: EVQLVQSGAEVKKPGSSVKVSCKASGYRFSDYEMQWVRQAPGQGLEWMGGIDPETGGIAYAQKFQGRVTLTADKSTSTAYMELSSLRSEDTAVYYCTRKLDFDYWGQGTLVTVSSASTKGPSVFPLAPSSKSTSGGTAALGCLVKDYFPEPVTVSWNSGALTSGVHTFPAVLQSSGLYSLSSVVTVPSSSLGTQTYICNVNHKPSNTKVDKKVEPKSCDKTHTCPPCPAPESTRGPSVFLFPPKPKDTLYITREPEVTCVVVDVSHEDPEVKFNWYVDGVEVHNAKTKPREEQYNSTYRVVSVLTVLHQDWLNGKEYKCKVSNKALPAPIEKTISKAKGQPREPQVYTLPPSRDELTKNQVSLTCLVKGFYPSDIAVEWESNGQPENNYKTTPPVLDSDGSFFLYSKLTVDKSRWQQGNVFSCSVMHEALHNHYTQKSLSLSPGK
light: ETTVTQSPAFMSATPGDKVTISCITSTDIDDDMNWYQQKPGEPPKLLISEGSTLRPGVPSRFSSSGYGTDFTFTINNIESEDAAYYYCLQSDNLPLTFGQGTKLEIKRTVAAPSVFIFPPSDEQLKSGTASVVCLLNNFYPREAKVQWKVDNALQSGNSQESVTEQDSKDSTYSLSSTLTLSKADYEKHKVYACEVTHQGLSSPVTKSFNRGEC
notes: as for B1
EC50 [1]: 0.65 nM

B4: 37G04 (antibody, human IgG1, V domains shown)
VH: AVTLDESGGGLQTPGGALSLVCKASGFTFSDYDMLWVRQAPGKGLEFVAGINAASTYTDYGAAVKGRATISRDNGQSTVRLQVNNLRAEDTGTYYCAKSSYGGGWSDVGSIDAWGHGTEVIVSS
VL: ALTQPSSVSANPGETVKITCSGDRSYYGYGWYQQKAPGSAPVTVIYWDDKRPSDIPSRFSGSTSGSTATLTITGVQAEDEAVYFCGNMDSSYVGMFGAGTTLTVL
notes: Chimeric: chicken variable regions on human IgG1 LALA (L234A/L235A); also called 037G04
IC50 of oxLDL uptake inhibition (DiI-oxLDL, SCC25 cells) [2]: 1.14 nM | EC50 [3]: 9.91 nM | EC50 [4]: 2.29 nM | EC50 [5]: 1.45 nM | EC50 [6]: 0.62 nM | IC50 of fatty acid uptake inhibition (BODIPY FL C16, HEK hCD36 cells) [7]: 0.3 nM | EC50 [8]: 3.3 nM

B5: 36G04 (antibody, human IgG1, V domains shown)
VH: AVTLDESGGGLQTPGGALSLVCKASGFIFSSYGMGWVRQAPGKGLEYIAAISNDGSKADYGAAVKGRATISRDNGQSTVRLQLNNLRAEDTATYYCAKSADTGYCSWSACIADSIDAWGHGTEVIVSS
VL: ALTQPSSVSAIPGETVKITCSGGGSDYGWYQQKSPGSAPVTVIYWSDNRPSNIPSRFSGSESGSTATLTITGVRAEDEAVYFCGGYDSSGSGMFGAGTTLTVL
notes: Chimeric: chicken variable regions on human IgG1 LALA (L234A/L235A); also called 036G04
IC50 of oxLDL uptake inhibition (DiI-oxLDL, SCC25 cells) [2]: 0.09 nM | EC50 [3]: 0.57 nM | EC50 [4]: 0.66 nM | EC50 [5]: 0.29 nM | EC50 [6]: 0.33 nM | IC50 of fatty acid uptake inhibition (BODIPY FL C16, HEK hCD36 cells) [7]: 0.81 nM | EC50 [8]: 1.04 nM

B6: 35G04 (antibody, human IgG1, V domains shown)
VH: AVTLDESGGGLQTPGGALSLVCKASGFTFSNYGMGWMRQAPGKGLEFVAKIYKDGGYTGYGAAVDGRATISRDDGQSTVRLQLNDLRAEDTATYFCAKAADSGYLYITDSIDAWGHGTEVIVSS
VL: ALTQPSSVSANPGETVKITCSGGSGSYGWFQQKSPGNAPVTVIYHNDQRPSDIPSRFSGSKSGSTATLTITEVQADDEAVYVCGGYDNDNDAGIFGAGTTLTVL
notes: Chimeric: chicken variable regions on human IgG1 LALA (L234A/L235A); also called 035G04
IC50 of oxLDL uptake inhibition (DiI-oxLDL, SCC25 cells) [2]: 0.11 nM | EC50 [3]: 0.66 nM | EC50 [4]: 2.25 nM | EC50 [5]: 0.59 nM | EC50 [6]: 0.63 nM | IC50 of fatty acid uptake inhibition (BODIPY FL C16, HEK hCD36 cells) [7]: 0.04 nM | EC50 [8]: 1.35 nM

B7: 11G04 (antibody, human IgG1, V domains shown)
VH: EVQLQQSGAELVRPGASVTLSCKASGYRFSDYEMQWVKQTPVHGLEWIGGIDPETGGIAYNQKFKVKATLTADKSSSTAFMELRSLTSEDSAVYYCTRKLDFDYWGQGTTLTVSS
VL: ETTVTQSPASLSVATGEKVTIRCITSTDIDDDMNWYQQKPGEPPKLLISEGNTLRPGVPSRFSSSGYGTDFVFTIENMLSEDVADYYCLQSDNLPLTFGAGTKLELK
notes: Chimeric: mouse variable regions on human IgG1 LALA (L234A/L235A); also called 011G04
IC50 of oxLDL uptake inhibition (DiI-oxLDL, SCC25 cells) [2]: 1.17 nM | EC50 [1]: 0.49 nM | Kd (human CD36 (His-tagged)): 19 nM | koff (human CD36 (His-tagged)): 0.022 s⁻¹ | kon (human CD36 (His-tagged)): 1.2e+06 M⁻¹ s⁻¹ | Percent Fatty Acid Uptake Inhibition [9]: 41.6% | EC50 [10]: 0.46 nM | EC50 [4]: 11.2 nM | EC50 [5]: 8.93 nM | EC50 [6]: 0.45 nM | IC50 of fatty acid uptake inhibition (BODIPY FL C16, HEK hCD36 cells) [7]: 0.07 nM

B8: 33G04 (antibody, human IgG1, V domains shown)
VH: AVTLDESGGGLQTPGGALSLVCKASGFDFSSYAMGWVRQAPGKGLEWVAGKAKDGGGTAYGSAVKGRATISRDNGQSTVRLQLSNLRAEDTGVYYCAKSAYGDWFYGSSGPYADSIDAWGHGTEVIVSS
VL: ALTQPSSVSASPGETVKITCSGSSDSWYGWYQQKSPGSALVTVIYDSTNRPSSIPSRFSGSTSGSTGTLTITGVRADDEAVYFCGSFDSSTDSTAFGAGTTLTVL
notes: Chimeric: chicken variable regions on human IgG1 LALA (L234A/L235A); also called 033G04
IC50 of oxLDL uptake inhibition (DiI-oxLDL, SCC25 cells) [2]: 0.28 nM | EC50 [3]: 1.58 nM | EC50 [4]: 4.33 nM | EC50 [5]: 0.52 nM | EC50 [6]: 0.31 nM | IC50 of fatty acid uptake inhibition (BODIPY FL C16, HEK hCD36 cells) [7]: 0.1 nM | EC50 [8]: 3.68 nM

B9: 34G04 (antibody, human IgG1, V domains shown)
VH: AVTLDESGGGLQTPGGALSLVCKASGFDFSSYAMGWVRQAPGKGLEWVAGKAKDGGGTAYGSAVKGRATISRDNGQSTVRLQLSNLRAEDTGVYYCAKSAYGDWFYGSSGPYADSIDAWGHGTEVIVSS
VL: ALTQPSSVSANPGETVKITCSGGDNYAGSYYYGWYQQKSPGSAPVTVIYDDTNRPADIPSRFSGSTSGSTNTLTITGVRAEDEAVYFCGGWDSINDRNIFGAGTTLTVL
notes: Chimeric: chicken variable regions on human IgG1 LALA (L234A/L235A); also called 034G04
IC50 of oxLDL uptake inhibition (DiI-oxLDL, SCC25 cells) [2]: 1.06 nM | EC50 [3]: 2.47 nM | EC50 [4]: 6.75 nM | EC50 [5]: 1.4 nM | EC50 [6]: 0.56 nM | IC50 of fatty acid uptake inhibition (BODIPY FL C16, HEK hCD36 cells) [7]: 0.2 nM | EC50 [8]: 4.82 nM
